From paper PMC3025356, “Mechanism of the Ca^2+-Dependent Interaction between S100A4 and Tail Fragments of Nonmuscle Myosin Heavy Chain IIA” (Journal of Molecular Biology, 2011) come the findings set out here.

Where “and” joins values, the source holds several entries; their conditions need not be identical. Equal values may be shown once.

Series [1] has as its target T1, S100A4 (Homo sapiens, UniProt P26447).
T1 construct: We used full-length S100A4 for this analysis; made in house; host or cells: Escherichia coli BL21(DE3)
Nature of the series: Ca^2+ dependence of M200 turbidity in the presence of S100A4. It is filed as biochemical. Particulars: 5 μM M200 + S100A4; 100 mM NaCl, 20 mM Hepes, 1 mM Mg^2+, 1 mM EGTA, 1 μM Fura-2; read-out: apparent Kd for Ca^2+ binding. The source says: The decrease in fluorescence, […]
that F-M16N binding was slightly faster.
The equilibrium constant (K5) for dissociation of the M200.S100A4.Ca2+ complex The value of K5 (scheme 2) was estimated from two independent experiments. From the competition […]
inhibition in the amplitude of the turbidity change arising from 5 M M200 at saturating Ca2+ concentrations. Under these conditions the free S100A4.Ca2+ concentration is ~ 0.06 M based on K2 = 3 […]
concentration will remain close to its critical concentration (K4 = 0.1 M), so that K5 = 0.1 * 0.06 / 5 ≈ 0.001 M, which represents the binding of S100A4.Ca2+ to free M200.
A second estimate was calculated from the apparent Ca2+ binding constant observed in the turbidity assay
(Fig. S6c). 5 M M200 in the presence of S100A4 and 1 mM EGTA gave a high turbidity in 0.1 M NaCl buffer, as S100A4 binds weakly under these conditions. Addition of aliquots of Ca2+ caused filament dissociation as the free Ca2+ rose, to give an apparent binding constant for Ca2+ of 0.14 M (Fig. S6c). At […]
contained 100 mM NaCl, 20 mM Hepes, 1 mM Mg2+, 1 mM EGTA and 1 µM Fura-2. Ca2+ was added in l aliquots and the turbidity measured (using the 10 mm path length). The free Ca2+ was calculated from the ratio of the Fura-2 340 nm to 362 nm excitation peaks, assuming a Kd of 0.224 M 1, measured between each addition of Ca2+ (using the 2 mm path length for excitation).

Series [2] is described as follows: Turbidity of M200 filaments. Type of series: physicochemical. As to the method:
Absorption spectra were recorded using a Cary 50 spectrophotometer (Varian Ltd., Walton on Thames, UK). Protein concentrations were calculated from their absorbance at 280 nm, using molar coefficients of 2980 M^− 1 cm^− 1 (M200 and S100A4) and 1490 M^− 1 cm^− 1 (M111), based on their tyrosine content (two residues per chain and one residue per chain, respectively). Myosin fragments were measured in 0.5 M NaCl buffer, and care was taken to correct for the small contribution from turbidity. Protein concentrations are stated in terms of their monomeric polypeptide chain concentration. Under the conditions used for kinetic analysis, S100A4 is predominantly a dimer,[21,25] and M200 and M111 form stable coiled coils; therefore, the molar protein concentrations are half those given in all three cases. Fluorescence emission spectra were also checked, and those preparations containing a detectable shoulder at 340 nm due to contaminating tryptophan-containing proteins were subjected to further purification. F-M16^N concentrations were based on fluorescein absorbance (ɛ490 = 78,000 M^− 1 cm^− 1). […] Quin-2 concentrations were calculated from ɛ354 = 5000 M^− 1 cm^− 1 in the absence of Ca^2+.[39] Turbidity assays used to monitor M200 filament formation and solubilisation with manual mixing were carried out using a 10-mm pathlength and a 0.1-ml microcuvette (105.250-QS; Hellma, Southend on Sea, UK) at a wavelength of 300 nm. For determination of the free Ca^2+ concentration, Fura-2 fluorescence excitation spectra were measured in the same cuvette using the 2-mm path for excitation to minimise inner filter effects. […]
y = m2*(1-((m0^m4)/(m0^ m4+m...
Fig. S5. (a) Turbidity of the M200 fragment (5
M) as a function of [NaCl]. (b) Determination of the critical concentration of M200 in 100 mM NaCl, 10 mM Hepes, 0.1 mM Ca2+ at pH 7.5 and 20 °C. Aliquots of 1 or […]
l of M200 were added to 1 ml buffer and the turbidity reading determined over a 30 s period. A linear fit to the data obtained above 0.3
M indicated a critical concentration of 0.1 […]

For series [3], the system named is M200 filamentous bundles. Description: Electron microscopy of myosin IIA tail fragments. Also on record: species or system human. As to the method:
Fig. 8 Characterisation of myosin IIA coiled-coil tail fragments. Metal-shadowed electron micrographs of (a) M200 and (b) M111 deposited from 0.5 M ammonium acetate. Scale bar represents 50 nm. (c and d) Electron micrographs of a negatively stained M200 tail fragment. Fields of M200 (c) in the absence and (d) in the presence of a 2-fold molar excess of S100A4, respectively. Arrows point to individual strands emerging from images of filamentous bundles. The samples were prepared in 0.1 M sodium acetate buffer, where M200 formed large filamentous aggregates but were solubilised in the presence of S100A4. Scale bar represents 200 nm (see Materials and Methods for details).
For negative staining, the stock solution of the M200 tail fragment was diluted with a solution consisting of 0.1 M Na-acetate, 3 mM MgCl2, 0.1 mM CaCl2, 10 mM imidazole, and 5 mM NaH2PO4 (pH 7.0), with or without 14 μM S100A4, to give a final concentration of 7 μM M200. Following dilution, 5 μl of the mixture was applied to a grid with a thin carbon film supported by a holey carbon film, and the grid was negatively stained using 1% uranyl acetate. For metal shadowing, the stock solutions of the M200 and M111 tail fragments were diluted with 0.5 M ammonium acetate solution to give a final concentration of 5 μM protein. This was mixed with an equal volume of glycerol, and the resulting mixture was sprayed onto freshly cleaved mica then rotary shadowed with platinum at an angle of 6°.[46] Grids were examined in a Philips CM120 electron microscope (FEI, Hillsboro, OR) operated at 80 kV. Images were recorded on a 2000 × 2000 F224HD slow-scan CCD camera (TVIPS, Gauting, Germany) at a magnification of 65,000× (0.37 nm pixel^− 1). The lengths of nonoverlapping well-shadowed molecules were measured as described by Burgess et al.[47]

T1 sequence (P26447 whole entry): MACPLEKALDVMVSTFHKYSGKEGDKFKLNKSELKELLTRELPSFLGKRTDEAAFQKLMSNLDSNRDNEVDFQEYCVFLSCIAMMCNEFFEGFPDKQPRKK

B1: M200: His-tagged human NM-MHC IIA residues Q1761-E1960, V1913I substitution (protein, UniProt P35579 1761-1960, looked up, variant V1913I)
chain: QINTDLNLERSHAQKNENARQQLERQNKELKVKLQEMEGTVKSKYKASITALEAKIAQLEEQLDNETKERQAACKQVRRTEKKLKDVLLQVDDERRNAEQYKDQADKASTRLKQLKRQLEEAEEEAQRANASRRKLQRELEDATETADAMNREISSLKNKLRRGDLPFVVPRRMARKGAGDGSDEEVDGKADGAEAKPAE
modifications: His tag
notes: His-tagged human NM-MHC IIA residues Q1761-E1960, V1913I substitution
Regarding B1, the Kd in series [1] turned out to be 140 nM. Moreover, the “NaCl midpoint of turbidity transition” value in series [2] (5 μM M200) is given as “about 120 mM NaCl”. Also, in series [2] (100 mM NaCl), the “intercept (critical concentration) from 2.5-5 μM data only” value is 0.49 µM. The critical concentration in series [2] (100 mM NaCl, 10 mM Hepes, 0.1 mM Ca^2+, pH 7.5, 20 °C) was ~0.1 ± 0.04 µM and < 0.2 µM. The “critical concentration (supplement)” value in series [2] (100 mM NaCl, 10 mM Hepes, 0.1 mM Ca^2+, pH 7.5, 20 °C, fit above 0.3 μM) came out at 0.1 µM. Also, in series [3] (0.1 M Na-acetate), the filamentous bundle width is reported as roughly 100 nm and the individual strand width entry is reported as “about 10 nm”. In addition, the “mean length of coiled coil” value in series [3] (metal shadowed, 0.5 M ammonium acetate, mean ± SD, n = 132) was found to be 26.4 ± 2.03 nm.
